Measurements as given in article PMC6238609, “Secretory granule protein chromogranin B (CHGB) forms an anion channel in membranes” (Life Science Alliance, 2018).

Experiments:
[1] = target: the molecule itself; experiment: SEC; partially purified CHGB in a Superose 6 column, earlier SEC step during purification
[2] = target: the molecule itself; experiment: SEC; purified CHGB in detergent (0.050% Triton X-100), Superose 6 10/30 column; single symmetric peak

B1: recombinant murine chromogranin B (CHGB) (natural protein, mouse, UniProt P16014 21-677, looked up)
chain: APVDNRDHNEEMVTRCIIEVLSNALSKSSVPTITPECRQVLKKSGKEVKGEEKGENQNSKFEVRLLRDPADASGTRWASSREDAGAPVEDSQGQTKVGNEKWTEGGGHSREGVDDQESLRPSNQQASKEAKIYHSEERVGKEREKEEGKIYPMGEHREDAGEEKKHIEDSGEKPNTFSNKRSEASAKKKDESVARADAHSMELEEKTHSREQSSQESGEETRRQEKPQELTDQDQSQEESQEGEEGEEGEEGEEGEEDSASEVTKRRPRHHHGRSGSNKSSYEGHPLSEERRPSPKESKEADVATVRLGEKRSHHLAHYRASEEEPEYGEESRSYRGLQYRGRGSEEDRAPRPRSEESQEREYKRNHPDSELESTANRHGEETEEERSYEGANGRQHRGRGREPGAHSALDTREEKRLLDEGHYPVRESPIDTAKRYPQSKWQEQEKNYLNYGEEGDQGRWWQQEEQLGPEESREEVRFPDRQYEPYPITEKRKRLGALFNPYFDPLQWKNSDFEKRGNPDDSFLEDEGEDRNGVTLTEKNSFPEYNYDWWERRPFSEDVNWGYEKRSFARAPQLDLKRQYDGVAELDQLLHYRKKADEFPDFYDSEEQMGPHQEANDEKARADQRVLTAEEKKELENLAAMDLELQKIAEKFSQRG
notes: chromogranin B (CHGB), mouse; cDNA of the mouse CHGB gene (mChgb) cloned from a pcDNA3.1 plasmid into pFastBac 1; The protein needs Triton X-100-like detergents to stay soluble; also called mCHGB; mouse CHGB; source: sf9 cells (baculovirus), purified (Q-sepharose, ammonium sulfate, Ni-IDA, Superose 6 SEC) in Triton X-100
stoichiometry N [1]: 4 | stoichiometry N [2]: 2
